From patent US8501695B2, “Tissue kallikrein for the treatment of diseases associated with amyloid protein” (DiaMedica, Inc., priority 2007, dated 2013)

Experiment: Pharmacokinetic study of intranasal tissue kallikrein (125I-KLK1 tissue concentrations by gamma counting)
Format: in vivo
Details: rat
Description: The purpose of this study was to quantify the amount of tissue kallikrein (KLK1) reaching the central nervous system and peripheral tissues after intranasal administration to anesthetized rats. At 30 min after KLK1 administration, animals were transcardially perfused with ice-cold saline followed by paraformaldehyde fixative and tissues were dissected. The amount of radiolabeled KLK1 in each tissue sample was quantified by gamma counting and tissue concentrations were calculated using tissue weight and gamma counting of standards of the dosing solutions
Adult male Sprague Dawley rats (n=10, mean 335.4 g±4.57 g SE) were used for this study. Animals were group housed in the Regions Hospital Animal Care Facility with free access to food and water. Animals were kept on a 12 h light cycle. All experimental procedures were approved by the Animal Care and Use Committee at Regions Hospital under IACUC protocol number 08-022.
Tissue kallikrein was sent to Perkin-Elmer for ^125I-labelling (Quote NEX-084, lot C1541583). Non-labeled KLK1 from Sigma (cat#K3627-1KU, lot 018K1441) was also used. Non-labeled KLK1 was dissolved in 1×PBS (10×PBS, Sigma, cat #P5493, lot 027K8405 diluted in sterile water). The average dose was 48.1 μL, 75 μCi, and 2.6 mg.
• a. Prior to anesthesia, each rat was weighed. • b. An anesthesia cocktail was prepared and full, half, and quarter anesthesia doses were calculated according to the animal's weight with a full dose containing 30 mg/kg ketamine, 6 mg/kg xylazine, and 1 mg/kg acepromazine. • c. A 1-cc syringe fitted with a 25 G or 27 G, ½ inch needle was assembled and a full dose was drawn into the syringe for injection. • d. Rats were restrained in a towel as follows. Rats were placed ventral side down in the middle of a hand towel. The towel was then wrapped around the head and shoulders to restrain. Wrapped animals remained ventral side down while the left hind leg was located. • e. The left hind leg was drawn to the side and the needle was inserted just beneath the skin (subcutaneous) above the thigh. After ensuring that the needle was placed subcutaneously (and not intramuscularly), full doses were injected. Rats were placed in holding cages and the injection time noted. Animals should be under within 5 min. • f. Anesthesia was monitored throughout the procedures by assessing reflexes using pinching of the hind paw or tail. If a reflex was present, a half or quarter dose booster was administered as necessary. • g. During drug administration, animals received a half dose booster roughly 20-25 min after initial dose. Intranasal Delivery of ^125I-KLK1 • a. Anesthetized rats were placed on their backs on a heating pad in a metal surgical tray. The heating pad was connected to a thermostat and was automatically regulated to maintain a 37° C. temperature based on continuous measurement from a rectal probe. • b. A 2″×2″ gauze pad was rolled tightly into a pillow, taped together, and under the neck to maintain a correct neck position horizontal with the counter. • c. A lead impregnated shield was placed between the surgical tray and the experimenter for protection against radiation. The dose solution, pipette, pipette tips, and waste receptacle were arranged behind the shield for easy access. • d. A 6 μL drop was loaded into the pipette behind the shield. • e. A cotton swab covered in parafilm was used to occlude one naris completely (the flat part of the swab was pushed gently against the naris to prevent airflow), while the 6 μL drop was expelled slowly from the pipette (held at a 45° angle from the rat's midline), forming a drop on the pipette tip. The drop was lowered onto the open naris to be inhaled. • f. After two minutes, the alternate naris was occluded and a 6 μL drop was administered in the same fashion. • g. A drop was administered as described above every two minutes to alternating nares until a total of 8 drops was delivered (4 to each naris) over 14 min. • h. […]

[1] = 30 min. end point, Avg, outliers removed

B1: tissue kallikrein: serine protease that cleaves kininogen into kallidin; polypeptide SEQ ID NO:1 (Sus scrofa kallikrein 1), KLK1 from Sigma (protein, listed as Sus scrofa)
chain: MWSLVMRLALSLAGTGAAPPIQSRIIGGRECEKDSHPWQVAIYHYSSFQCGGVLVDPKWVLTAAHCKNDNYQVWLGRHNLFENEVTAQFFGVTADFPHPGFNLSLLKNHTKADGKDYSHDLMLLRLQSPAKITDAVKVLELPTQEPELGSTCQASGWGSIEPGPDDFEFPDEIQCVELTLLQNTFCADAHPDKVTESMLCAGYLPGGKDTCMGDSGGPLICNGMWQGITSWGHTPCGSANKPSIYTKLIFYLDWINDTITENP
modifications: 125I label in one form
30 min
  reaching target regions (frontal cortex, temporal cortex, hippocampus, cerebral blood vessel walls, cervical nodes): effectively reached target regions
[1]
  concentration in Amygdala: 16.2 nM
  concentration in Anterior Olfactory Nucleus: 26.8 nM
  concentration in Anterior Trigeminal Nerve: 109.1 nM
  concentration in Axillary Nodes (2): 42.3 nM
  concentration in Blood Sample: 268.4 nM
  concentration in Carotid Artery: 113.4 nM
  concentration in Cerebellum: 10.9 nM
  concentration in Cervical Nodes (2): 122.3 nM
  concentration in Circle of Willis & Basilar Artery: 103.3 nM
  concentration in Dorsal Dura: 132.9 nM
  concentration in Esophagus: 85.2 nM
  concentration in Extra Cortex: 13.0 nM
  concentration in Extra Slice #1: 23.6 nM
  concentration in Extra Slice #2: 16.7 nM
  concentration in Extra Slice #3: 13.9 nM
  concentration in Extra Slice #4: 12.0 nM
  concentration in Extra Slice #5: 11.8 nM
  concentration in Extra Slice #6: 11.3 nM
  concentration in Frontal Cortex: 23.9 nM
  concentration in Heart: 22.6 nM
  concentration in Hippocampus: 10.7 nM
  concentration in Hypothalamus: 22.2 nM
  concentration in Kidney (L, tip): 134.8 nM
  concentration in Liver (R, superficial lobe): 25.7 nM
  concentration in Lower Cervical Spinal Cord: 7.1 nM
  concentration in Lumbar Spinal Cord: 4.9 nM
  concentration in Lung (R, top lobe): 37.2 nM
  concentration in Medulla: 14.9 nM
  concentration in Midbrain: 12.5 nM
  concentration in Muscle (R, deltoid): 21.4 nM
  concentration in Occipital Cortex: 12.8 nM
  concentration in Olfactory Bulbs: 107.1 nM
  concentration in Olfactory Epithelium: 24,762.6 nM
  concentration in Optic Chiasm: 29.4 nM
  concentration in Parietal Cortex: 12.1 nM
  concentration in Pituitary: 60.1 nM
  concentration in Pons: 14.4 nM
  concentration in Posterior Trigeminal Nerve: 51.8 nM
  concentration in Renal artery (L): 58.1 nM
  concentration in Respiratory Epithelium: 75,970.0 nM
  concentration in Septal Nucleus: 12.1 nM
  concentration in Spinal Dura: 26.6 nM
  concentration in Spleen (tip): 72.6 nM
  concentration in Striatum: 9.8 nM
  concentration in Superficial Nodes (2): 63.1 nM
  concentration in Temporal Cortex: 12.4 nM
  concentration in Thalamus: 10.3 nM
  concentration in Thoracic Spinal Cord: 5.2 nM
  concentration in Thyroid: 1970.6 nM
  concentration in Trachea: 77.7 nM
  concentration in Upper Cervical Spinal Cord: 23.4 nM
  concentration in Urine: 130.7 nM
